Experimental data taken from the supplement of paper PMC10567573.

B1: KCTD10 (parent)
chain: SSKEEQKLIATSNKPAVKLLYNRS

Variants of: B1
Assay: protein stability index of a GFP-peptide fusion (GPS, HEK-293T) (PSI 1-6); higher = more stable
Settings: c terminus: a fixed tail appended
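Also: lentivirally expressed fusions sorted by FACS into six bins by GFP to DsRed ratio, PSI derived from sequencing read proportions per bin multiplied by bin number.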

Protein stability index, by site and new letter:
K14: H 3.59; R 4.2; C 3.73; L 3.8; Y 3.46; V 3.96; D 4.57; T 4.04; M 3.76; Q 4.28; F 3.39; N 3.96; A 3.76; I 3.66; W 2.63; S 4.24; E 4.39; P 4.32; G 4.03
K7: N 4.32; W 2.87; V 3.68; Y 3.29; T 3.87; Q 4.25; S 3.55; P 4.39; R 3.92
I9: Y 4.41; W 3.93; D 4.74; E 4.72; V 4.34; M 3.96; R 4.33; P 4.69; S 4.34; K 4.39; Q 4.31; H 3.81; A 3.97; N 4.36; C 3.91; G 4.54; F 4.08; T 4.18; L 3.98
L8: W 3.79; I 4.32; Y 4.02; M 4.43; H 4.46; Q 4.6; G 4.51; P 4.88; D 4.88; K 4.75; A 4.88; F 3.51; T 4.47; C 4.42; S 4.62; R 4.34; E 4.96; N 4.31; V 4.66
A10: K 4.15; N 4.41; R 3.88; V 3.45; F 3.44; L 3.73; Y 3.65; D 3.78; T 4.39; E 4.51; M 3.51; S 4.01; Q 4.27; W 3.51; G 3.86; P 3.78; C 3.88; H 4.2; I 2.74
A16: E 4.26; C 3.74; F 3.57; D 4.18; G 3.79; H 4.16
P15: H 3.86; E 4.53; D 4.2; T 3.73; W 2.19; N 4.08; A 3.54; Q 3.96; F 3.1; Y 3.1; V 3.13; M 3.47; R 3.51; G 4.24; L 2.93; K 3.39; C 2.96; I 2.81; S 4.07
T11: P 3.97; L 3.7; E 4.58; V 3.75; H 3.94; Y 3.6; W 3.35; D 4.68; S 4.26; R 3.37; K 4.19; I 3.73; A 4.42; F 3.63; C 3.61; N 3.92; G 4.16; Q 4.15; M 3.6
S12: L 3.72; K 4.27; Y 3.38; P 4.29; I 3.92; T 4.34; G 3.89; N 4.02; C 3.81; R 4.02; Q 4.26; F 3.34; V 3.88; A 3.89; D 4.52; W 2.79; M 3.42; E 4.42; H 3.46
N13: L 3.3; M 3.69; W 2.67; F 3.16; H 3.9; G 4.28; Y 3.38; A 3.58; C 2.31; S 3.79; Q 2.95; T 4; V 3.75; P 4.12; E 4.54; K 3.96; R 3.33; D 4.73; I 3.21
